Test results as given in patent US20130085101A1.

Biological target: human Type 1 IGF receptor (human) (UniProt P08069)
Assay: competitive displacement of 125I-Tyr31-IGF-I; FLAG-tagged IGF-1R captured on anti-FLAG plate

Sequence of human Type 1 IGF receptor (human) (P08069 31-1367 limits assumed): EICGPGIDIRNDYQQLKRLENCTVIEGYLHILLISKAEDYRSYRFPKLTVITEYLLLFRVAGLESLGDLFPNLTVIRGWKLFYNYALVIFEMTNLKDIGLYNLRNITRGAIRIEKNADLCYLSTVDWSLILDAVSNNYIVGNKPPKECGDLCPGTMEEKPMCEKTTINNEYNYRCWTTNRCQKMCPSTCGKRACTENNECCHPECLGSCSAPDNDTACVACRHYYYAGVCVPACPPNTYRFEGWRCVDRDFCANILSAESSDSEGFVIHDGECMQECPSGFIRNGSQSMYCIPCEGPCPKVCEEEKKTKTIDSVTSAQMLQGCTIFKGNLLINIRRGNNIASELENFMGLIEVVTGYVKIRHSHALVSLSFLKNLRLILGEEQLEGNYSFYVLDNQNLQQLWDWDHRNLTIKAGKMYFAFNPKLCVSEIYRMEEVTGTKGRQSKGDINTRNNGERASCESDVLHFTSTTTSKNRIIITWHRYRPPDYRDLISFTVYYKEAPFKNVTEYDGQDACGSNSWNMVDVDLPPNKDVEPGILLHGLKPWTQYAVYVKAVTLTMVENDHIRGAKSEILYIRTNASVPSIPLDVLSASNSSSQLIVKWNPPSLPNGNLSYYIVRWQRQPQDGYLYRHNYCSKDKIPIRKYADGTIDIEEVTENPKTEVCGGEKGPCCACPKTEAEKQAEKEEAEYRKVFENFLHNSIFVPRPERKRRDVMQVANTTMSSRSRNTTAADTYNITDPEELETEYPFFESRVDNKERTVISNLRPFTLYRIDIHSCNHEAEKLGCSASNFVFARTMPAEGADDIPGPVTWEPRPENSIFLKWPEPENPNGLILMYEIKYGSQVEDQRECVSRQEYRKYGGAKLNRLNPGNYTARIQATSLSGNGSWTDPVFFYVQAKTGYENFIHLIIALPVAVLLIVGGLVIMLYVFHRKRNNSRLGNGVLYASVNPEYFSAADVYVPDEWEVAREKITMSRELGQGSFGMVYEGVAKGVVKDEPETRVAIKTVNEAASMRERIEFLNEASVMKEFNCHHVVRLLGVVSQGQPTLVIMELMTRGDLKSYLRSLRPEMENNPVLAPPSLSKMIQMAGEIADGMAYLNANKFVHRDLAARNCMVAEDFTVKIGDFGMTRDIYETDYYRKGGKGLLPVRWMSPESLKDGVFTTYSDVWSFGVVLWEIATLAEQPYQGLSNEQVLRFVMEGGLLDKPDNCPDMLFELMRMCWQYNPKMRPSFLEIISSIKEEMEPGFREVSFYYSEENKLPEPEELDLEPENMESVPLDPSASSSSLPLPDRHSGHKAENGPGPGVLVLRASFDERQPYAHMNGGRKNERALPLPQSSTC

## lispro-insulin (ligand; other documents disagree on this pair)
  relative affinity (percent (of IGF-I for IGF-1R)): 0.27
